Source: publication PMC11109976, “CSB and SMARCAL1 compete for RPA32 at stalled forks and differentially control the fate of stalled forks in BRCA2-deficient cells” (Nucleic Acids Research, 2024)

Columns and labels:
[1] = biological target: RPA32C C-terminal domain (Homo sapiens) (UniProt P15927); assay: ITC; conditions: cited from earlier work
[2] = biological target: T1, RPA32 construct spanning the region 210-270 (UniProt P15927 210-270, RED-tris-NTA dye on the His tag); assay: MST; RPA32C labelled with RED-tris-NTA (His-tag labelling kit), 100 nM mixed 1:1 with 2-fold serial dilutions of the ligand; 50 mM HEPES pH 8.0, 400 mM NaCl, 10% glycerol, 0.05% Tween-20; incubated 30 min at 37°C, measured at 25°C; three replicates; conditions: both partners purified
T1 construct: RPA32, residues 210-270 (C-terminal winged helix domain); Cloned by LIC; also called RPA32(210-270); C-terminal winged helix domain of RPA32; source: E. coli SoluBL21, purified (Ni-NTA, anion exchange, SEC)
T1 sequence (P15927 210-270): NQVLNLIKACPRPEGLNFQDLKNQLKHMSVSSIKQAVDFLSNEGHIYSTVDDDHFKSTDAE

Chain of RPA32C C-terminal domain (Homo sapiens) (P15927 202-270): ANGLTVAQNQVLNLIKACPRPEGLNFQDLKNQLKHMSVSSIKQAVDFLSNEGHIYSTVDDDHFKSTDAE

Row | Molecule | Kd [1] [µM] | Kd [2] [µM]
1 | SMARCAL1 peptide 5-30 (from UniProt Q9NZC9) | 2.9 | 
2 | LTEEQRKKIEENRQKALARRAEKLLA (SMARCAL1, residues 5-30; also called 26-amino acid SMARCAL1 peptide; source: synthetic peptide, bought: LifeTein, LLC) [SMARCAL1 peptide (residues 5-30)] |  | 470
